Laboratory results published in the supplement of paper PMC9112550, “Optimization of the antimicrobial peptide Bac7 by deep mutational scanning” (BMC Biology, 2022).

Tested on: Escherichia coli TOP10
Assay: shrunken log2 fold change of peptide-encoding DNA abundance (4.5 h post-induction vs induction); higher = less antimicrobial activity (less host growth inhibition)
Details: time post-induction: 4.5 h; library: site-saturation at positions 5, 18, 19, 20
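Note: peptides expressed intracellularly from a pBAD plasmid library in pooled LB shake-flask culture, induced with 0.3% L-arabinose, DNA abundance read by NGS, three biological replicates, DESeq2 with apeglm shrinkage.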

Sequence	shrunken log2 fold change
RRIRGRPPRLPRPRPRPGQTPRP	0.405
RRIRNRPPRLPRPRPRPGHVPRP	-0.0552
RRIRDRPPRLPRPRPRPSKKPRP	-0.217
RRIRRRPPRLPRPRPRPYQIPRP	0.022
RRIRCRPPRLPRPRPRPVYWPRP	0.134
RRIRVRPPRLPRPRPRPKWQPRP	-0.0246
RRIRARPPRLPRPRPRPTDGPRP	0.0971
RRIRLRPPRLPRPRPRPGVTPRP	0.0426
RRIRHRPPRLPRPRPRPSIQPRP	-0.344
RRIRKRPPRLPRPRPRPCICPRP	-0.14
RRIRIRPPRLPRPRPRPMFIPRP	-0.454
RRIRWRPPRLPRPRPRPLPLPRP	0.477
RRIRIRPPRLPRPRPRPGWAPRP	0.22
RRIRPRPPRLPRPRPRPEMKPRP	-0.0423
RRIRIRPPRLPRPRPRPEVQPRP	-0.022
RRIRCRPPRLPRPRPRPNMAPRP	-0.614
RRIRMRPPRLPRPRPRPRTVPRP	0.472
RRIRTRPPRLPRPRPRPYVPPRP	-0.1
RRIRGRPPRLPRPRPRPVKEPRP	0.604
RRIRPRPPRLPRPRPRPQHRPRP	0.162
RRIRPRPPRLPRPRPRPWHQPRP	0.0649
RRIRCRPPRLPRPRPRPKLQPRP	0.155
RRIRIRPPRLPRPRPRPNPNPRP	-0.556
RRIRRRPPRLPRPRPRPMDWPRP	0.516
RRIRERPPRLPRPRPRPDQKPRP	-0.0097

Sequence	shrunken log2 fold change
RRIRHRPPRLPRPRPRPAKLPRP	-0.352
RRIRHRPPRLPRPRPRPRPPPRP	1.15
RRIRGRPPRLPRPRPRPTLAPRP	1.27
RRIRFRPPRLPRPRPRPVSGPRP	-0.0636
RRIRMRPPRLPRPRPRPVCKPRP	0.222
RRIRDRPPRLPRPRPRPHQHPRP	-0.308
RRIRGRPPRLPRPRPRPEFLPRP	1.01
RRIRHRPPRLPRPRPRPWYIPRP	-0.549
RRIRVRPPRLPRPRPRPSSIPRP	-0.128
RRIRGRPPRLPRPRPRPQRWPRP	0.293
RRIRDRPPRLPRPRPRPRRPPRP	0.652
RRIRNRPPRLPRPRPRPWGTPRP	0.0962
RRIRPRPPRLPRPRPRPGYLPRP	-0.129
RRIRPRPPRLPRPRPRPTHFPRP	0.442
RRIRERPPRLPRPRPRPHGDPRP	-0.0135
RRIRGRPPRLPRPRPRPSNSPRP	-0.203
RRIRSRPPRLPRPRPRPDHTPRP	-0.407
RRIRHRPPRLPRPRPRPKYSPRP	-0.489
RRIRNRPPRLPRPRPRPCHTPRP	-0.316
RRIRYRPPRLPRPRPRPFMPPRP	-0.323
RRIRLRPPRLPRPRPRPHSDPRP	-0.175
RRIRIRPPRLPRPRPRPDFIPRP	-0.447
RRIRVRPPRLPRPRPRPENAPRP	0.173
RRIRFRPPRLPRPRPRPVGFPRP	-0.0508
RRIRFRPPRLPRPRPRPTSCPRP	-0.0685

Sequence	shrunken log2 fold change
RRIRERPPRLPRPRPRPQGIPRP	-0.044
RRIRWRPPRLPRPRPRPAVVPRP	0.0979
RRIRIRPPRLPRPRPRPRRIPRP	-0.677
RRIRWRPPRLPRPRPRPWCKPRP	-0.239
RRIRGRPPRLPRPRPRPKREPRP	-0.00218
RRIRVRPPRLPRPRPRPMIEPRP	-0.255
RRIRYRPPRLPRPRPRPEKNPRP	-0.526
RRIRQRPPRLPRPRPRPEMEPRP	0.0171
RRIRTRPPRLPRPRPRPDCYPRP	-0.000691
RRIRERPPRLPRPRPRPLMWPRP	-0.101
RRIRIRPPRLPRPRPRPGPFPRP	-0.239
RRIRCRPPRLPRPRPRPSLQPRP	-0.455
RRIRFRPPRLPRPRPRPMSVPRP	-0.482
RRIRPRPPRLPRPRPRPQGCPRP	-0.0849
RRIRWRPPRLPRPRPRPDTLPRP	-0.134
RRIRTRPPRLPRPRPRPFRAPRP	-0.597
RRIRYRPPRLPRPRPRPCWAPRP	-0.434
RRIRHRPPRLPRPRPRPRRVPRP	0.36
RRIRYRPPRLPRPRPRPAPFPRP	-0.11
RRIRSRPPRLPRPRPRPGREPRP	0.325
RRIRKRPPRLPRPRPRPPGPPRP	1.04
RRIRVRPPRLPRPRPRPMRLPRP	0.617
RRIRIRPPRLPRPRPRPNLFPRP	-0.512
RRIRYRPPRLPRPRPRPWLRPRP	0.0188
RRIRKRPPRLPRPRPRPWPAPRP	0.376

Sequence	shrunken log2 fold change
RRIRRRPPRLPRPRPRPDQEPRP	0.0223
RRIRDRPPRLPRPRPRPYQYPRP	-0.0404
RRIRQRPPRLPRPRPRPHDNPRP	1.99
RRIRRRPPRLPRPRPRPRSGPRP	0.751
RRIRERPPRLPRPRPRPLREPRP	0.385
RRIRERPPRLPRPRPRPCDEPRP	0.011
RRIRDRPPRLPRPRPRPWGWPRP	0.226
RRIRKRPPRLPRPRPRPQEHPRP	0.0487
RRIRIRPPRLPRPRPRPVACPRP	-0.154
RRIRQRPPRLPRPRPRPLPTPRP	0.131
RRIRWRPPRLPRPRPRPPLQPRP	0.475
RRIRIRPPRLPRPRPRPPMSPRP	-0.288
RRIRGRPPRLPRPRPRPSKIPRP	0.149
RRIRSRPPRLPRPRPRPYSHPRP	-0.712
RRIRIRPPRLPRPRPRPFQPPRP	-0.407
RRIRQRPPRLPRPRPRPKPLPRP	0.176
RRIRHRPPRLPRPRPRPMPRPRP	0.069
RRIRYRPPRLPRPRPRPDVCPRP	-0.124
RRIRWRPPRLPRPRPRPRMSPRP	0.139
RRIRQRPPRLPRPRPRPDASPRP	0.0949
RRIRIRPPRLPRPRPRPGIHPRP	-0.31
RRIRKRPPRLPRPRPRPRRMPRP	0.488
RRIRRRPPRLPRPRPRPMDEPRP	0.0223
RRIRGRPPRLPRPRPRPYVVPRP	-0.0656
RRIRQRPPRLPRPRPRPNWMPRP	0.0507

Sequence	shrunken log2 fold change
RRIRPRPPRLPRPRPRPEWLPRP	0.404
RRIRSRPPRLPRPRPRPRRYPRP	-0.0572
RRIRFRPPRLPRPRPRPRIEPRP	-0.0896
RRIRARPPRLPRPRPRPKCPPRP	-0.0505
RRIRTRPPRLPRPRPRPFQMPRP	-0.135
RRIRPRPPRLPRPRPRPWHKPRP	-0.29
RRIRMRPPRLPRPRPRPNERPRP	0.69
RRIRARPPRLPRPRPRPFHMPRP	-1.05
RRIRFRPPRLPRPRPRPIKWPRP	-0.101
RRIRHRPPRLPRPRPRPQGPPRP	-0.235
RRIRPRPPRLPRPRPRPRMMPRP	0.323
RRIRPRPPRLPRPRPRPWAIPRP	-0.0391
RRIRSRPPRLPRPRPRPSFPPRP	-0.557
RRIRSRPPRLPRPRPRPLNYPRP	-0.166
RRIRNRPPRLPRPRPRPAANPRP	0.487
RRIRRRPPRLPRPRPRPSKVPRP	-0.0758
RRIRDRPPRLPRPRPRPGALPRP	0.191
RRIRGRPPRLPRPRPRPQISPRP	0.259
RRIRWRPPRLPRPRPRPNSMPRP	-0.114
RRIRRRPPRLPRPRPRPKSGPRP	-0.0499
RRIRNRPPRLPRPRPRPWMIPRP	-0.252
RRIRFRPPRLPRPRPRPCIVPRP	-0.637
RRIRERPPRLPRPRPRPWTEPRP	0.027
RRIRLRPPRLPRPRPRPFTVPRP	0.0023
RRIRPRPPRLPRPRPRPTTQPRP	0.0237
